Assay: yeast display, Sf9 membrane polyspecificity reagent, FACS + sequencing; frameworks hold sequencing errors
Summary of the method: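 Nanobodies came from a synthetic yeast display library in Saccharomyces cerevisiae BJ5465, induced with galactose for 36–48 hours and stained for 1 hour at 4 °C with 10% biotinylated, detergent-solubilized Sf9 membrane reagent. Cells were enriched on streptavidin microbeads and then FACS-sorted, with low and high (top ~1%) gates set on anti-HA fluorescence for expression and streptavidin fluorescence for reagent binding. Each polyreactivity label reflects the gate a clone came from. Genes were amplified by colony PCR, sequenced by MiSeq 2 × 250 and filtered by CDR length.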

Sequence	polyreactivity (PSR sort gate)
QVQLVESGGGLVQAGGSLRLSCAASGRIFIDYAMGWYRPAPGKERELVATITSSGGSTYYADSVKGRFTISRDNAKNTVYLQMNRLKPEDTAVYYCNKEGSYDYDYWGQGTQVTVSS	low polyreactivity
QVHLVESGGGLVQAGGSLRLSCAASGRTFPPYAMGGYRQAPGKERELVAAISIVGSTYYADSVKGRFTISRDNAKNTVYLQMNSLKPEDTAVYYCAADVAGYYKLYDYWGQGTQVTVSS	high polyreactivity
QVQRVESGGGLVQAGGSLRLSCAASGRIFLTNARGWYRQAPGKERELVPAITSGGSTYYADSVKGRFTISRDNAKNTVYLQMNSLKPEDTAVYYCNDDTDRYWPYEYDYWGQGTQVTVSS	low polyreactivity
QVQLVESGGGLVQAGGSLRISCAASGSTSTGMTWDGIDRRLGRKELVAGIRSAGSTNYADSVKGRFTISRDNAKNTVYLQMNSLKPEDTAGYYCAKDYRWVWRKYGYWGQGTQVTLSS	low polyreactivity
QVQLVESGGGLVQAGGSLRLSCAASGFTFSNYAMGWYRQAPGKERELVAAISRSGGSTYYADSVKGRFTISRDNAKNTVYLKMNSLKPEDTAVYYCNAVRYHARSGWSDYWGQGTQVTVSS	high polyreactivity
QVQLVESGGGLVQAGGSLRLSCAASGRIFSRYAMGWYRQAPGKERELVAAISKSGGRTYYADSVKGRFTISRDNAKNTVYLQKNSLKPEDTAVYYCATVIFRSSGYYYWGQGTQVTVSS	high polyreactivity
QVQLVESVGGLVQAGGSLRLSCAASGITFYGYTMGWYIQAPGKERELVAAITSGGITYYADSVKGRFTISRDNAKNTVYLQMNSLKPEDTAVYYCAARRYCYTSITWYDYWGQGTQVTVSS	high polyreactivity
QVQLVESGGGLVQAGGSHRLRCAASGRIFHVYAMGWYRQAPGKERELVAAISSGDRTYYADSVKGRFIISRDNAKNTVYLQMISLKPEDTAVYYCWRYPADESNYWGQGTQVTVSS	low polyreactivity
QVQLVESGGGLVQAGGSLRLSCAASGSILKVYAMGWYRQAPGKERELVAGITRSGVRTNYADSVKGRFTISRDNAKNTVYLQMNSLKPEDTAVCYCAAVGYVYRTYWYTRQSTYEYWGQGTQVTVSS	high polyreactivity
QVQLVESGGGLVQAGGSLRLSCAASGRIFRGYAMGWYRQAPGTERELVAAITRGGSTKYADSVKGRFTISRDNAKNTVYLQMNSLKPEDTAVYYCAKDSYPYVPLYRSRSLYGYWGQGTQVTVSS	high polyreactivity
QVQLVESGGGLVQAGGSLRLICAASGLIFPSYAMGWYRQAPGKERELVAGINSGGSTNYADSVKGRFTISRDNAKNTVYLQMNSLKPEDTAVYYCAKDNNYYWYVSPRDYWGQGTQVTVSS	low polyreactivity
QVQLVESGGGLVQAGGSLRLSCAASGSTFPINTMGWYRQAPGKERELVAAITHSGGRTYYADSVKGRFTISRVNAKNTVYLQMNSLKPEDTAVYYCNAVRYYAVRVSDGDYDYWGQGTQVTVSS	low polyreactivity
QVQIVESGGGLVQAGGSLRLSCAASVRTFGRYVMGWYRQAPGKERELVAAISSGGRTYYADSVKGRFTISRDNAKNTVYLQMNSLKPEDNAVYYCAVYVAYLYSYYYWGQGTQVTVSS	low polyreactivity
QVQLVESGGGLVQAGGSLRLSCAASGRTLRGYAMGWYRQAPGKERELVARITGSGGSTYADSVKGRFTISRDNAKNTVYLQMNSLKPEDTAVYYCAAGYSIYYYYAYTISRVSYDYWGQGTQVTVSS	high polyreactivity
QVQLVESGGGLVQAGGSLRLSCAASGSTFHWYDMGWYRQAPGKERELVAGINTSGDGTYYADSVKGRFTISRDNAKNTVYLQMNSLKPEDTAVYYCAAEYYTYWGYEDDYWGQGTQVTVSS	low polyreactivity
QVQLVESGGGLVQAGGSLRLSCAASGRTCDIYAMGWYRQAPGKERELVAAISSGGSTYYADSVKGRFTISRDNAKNTVYLQMNSLKPEDTAVYYCAVRWYDQVSRRGIGYYWGQGTLVTVSS	low polyreactivity
QVQLLESGGGLVQAGGSLRLSCAASGSIFTPNNMGWYRQAPGKESEFVAAITFSGGSTYYADSVKGRFTISRDNAKNTVYLQMNSLKPEDTSVYYCAAVYPTYDWYTPAYYYWGQGTQVTVSS	low polyreactivity
QVQLVESGGGLVQAGGSLRLSCAASGRTFVDSVMGWYRQAPGKERELVAAISRSGSTYYADSVKGRFTISRDNAKNTVYLQMNSLKPEDTAVYYCAADWSFNRSSGQYGFYYWGQGTQVTVSS	low polyreactivity
QVQLVESGGGLVQAGGSLRLSCAASGFTFYKYALGWYRQAPGKERELVAAISNSGGSTYYADSVKGRFTISRDNAKNTVYLQMNCLKPEDTAVYYCAKLSDSITLYGYWGQGTQVNVSS	high polyreactivity
QVQLVESGGGLVQAGGSLRLSCAASGRTFRSNAMGWDRQAPGKEREFVAAISSGGSTKYADSVKGRFTISRDNAKNTVYLQMNSLKPEDTAVYYCAAVSHSRYWGQGTQVTVSS	high polyreactivity
QVQLVESGGGLVQAGGSLRLSCAASGYTYRWYAMGWYRQAPGKEREMVAAINRNGGSTFYADSVKGRFTISRDNAKNSVYLQMNSLKPEDTAVYFCAARYSSLPRYLTDGLDYWGQGTQVTVSS	high polyreactivity
QVQLVEAGGGLGQAGGSLRLSCAASGRILTPYARGWYRQAPGKERELVAANTSGGRTHYAHSVKGRFTMSRDNAKNTVYLQMNSLTPEDTAVYYCAARVRTGWWVRDDYWGQGTQVTLSS	high polyreactivity

Sequence	polyreactivity (PSR sort gate)
QVQLVESGGGLVQAGGSLRLSCAASGLTFHRYAMGWYRQAPGKERELVAAINYSGGRTYYADSVKGRFTISRDNAKNTVYLQMNSLKPEDTAVYYCAAPRASGYYWGQGTQVTVSS	high polyreactivity
QVQLVESGGGLVQAGGSLRLSCAASGSIFYRNAMGWYRQTPGKERELVAAISSDGSTNYADSVKGRFTFSLDNAKNTVYLQMNRLNPEYTAVYYCAAPWTQFLDYWGQGTQVTVSS	low polyreactivity
QVQLVESGGGLVQAGGSLRLSCADSGSIFQYYVRGCYRQAPGKERELVAAIRRSGTTYYADSVKGRFTISRDNAKNTVYLQMNSLKTEDTAVDYCNKVRCQEPSNYDYWVQGTQVTVSS	low polyreactivity
QVQLVESGGGLVQAGGSLRLSCAASGSIFPHYAMGWYRQAPGKERELVAAISRGGSTNYADSVKGRFTISRDNAKNTVYLQMNSLKPEDTAVYYCAAQGNRYANDYWGQGTQVTVSS	high polyreactivity
QVQLVESGGGLDQAGGSLRLSCAASGSTFPKYGMGWYRQSPGKDREFVARINWNGGGTYYADSVKGRFTISRDNAKNTVYLQMNSLKPEDTAVYYCAADYEYYYFWDYYWGQGTQVTVSS	low polyreactivity
QVQLVESGGGLVQAGGSLRLSCAASGIIFYYNALGWYRQAPGKERELVAAIDDRGDSTYYADSVKGRFTISRDNAKNTVYLQMNSLKPEDTAVYYCAADRYVQLLGYFFEYDYWGQGTQVTVSS	low polyreactivity
QVQLVESGGGLVQAGGSLRLSCAASGRILLYKAMGWYRQAPGKERELVAAISRSGGSTYYADSVKGRFTISRDNAKNTVYLQMNSLKPEDTAVYYCAAQHGYPRYYFWGQGTQVTVSS	high polyreactivity
QVQLVESGGGLVQAGGSLRLSCAASGRIFGSNAMGWYRQAPAKERELVAAITFRTASTYYADSVKGRFTISRDNAKNTVYLQMNSLKPEDTSVYSCNADKFSAPPLYEYEYWGQGTQVTVSS	low polyreactivity
QVQLVESGGGLVQAGGSLRLSCAASGSTFEVYAMGWYRQAPGKERELVAVINVSDGSTYYADSVKGRFTISRDNAKNTVYLQMNSLKPEDTAVYYCAAYLYNRPYQLTGYYDGYGYWGQGTQVTVSS	low polyreactivity
QVQLVESGGGLVQAGGSLRLSCASSGFTFKFNAMGWYRPAPGKERELVAAISQSGVNTYYADSVKGRFTISRDNAKNTVFLLMNSLKPEDTAVYYCAADFSAYGYDYWGQGTQVTVSS	low polyreactivity
QVQLVESGGGLVQAGGSLRLSCAASGSTYARYAMGWYRQAPGKEREFVAAISASGGRTYYADSVKGRFTISRDNAKNTVYLQMNSLKPEDTPVDYCAVRVYAKYFAKYDYWGQGTQVTVSS	high polyreactivity
QVQLVESGGGLVQAGGSLRLSCAASGSTFSHNAMGWSIQAPWKERELLASISSGANTYYADSVKGRFTISRDNAKNTVYLHMNSLKPEVTAVYYCAAGAHAYDHYSWFYFRMHYWGQGTQVTVSS	low polyreactivity
QVQLVESGGCLVQAGGSLRLSCAASGSTFVYYAMGWYRQAPGKESELVAAITSGGSTYYADSVKGRFTISRDNAKNTVYLQMNSLKPEDTAVYYCATDYTWFGYRYDYWGQGTQVTVSS	low polyreactivity
QVQLVESGGGLVQAGGSLRLSCAASGSIFYYNTMGWYRQAPGKERELVAGISWGGGRTYYADSVKGRFTISRDNAKNTVYLQMNSLKPEDTAVYYCNARHRRLPSNGGYDYWGQGTQVTVSS	high polyreactivity
QVQLVESGGGLVQAGGSLRLSCAASGSIFFYYAMGWYRQAPGKERELVAAITSSDGDTYYADSVKGRFTISRDNAKNTVYLQMYSLKPEDTAVYYCAAESGPSPPITTSSNEYWGQGTLVTVSS	low polyreactivity
QVQLVESGGGLVQAGGSLRLSCAAYGRIFRYNAMGWSTQAPGKERELVAAISRGGSSTYYADSVKGRFTISRDNAKNTVYLQMNSLQPEDTAVYYCNARSVVREFNNWGQGTQVTVSS	high polyreactivity
QVQLVESAGGLVQAGGSLRLSCAASGRTFDAYAMGWYRQAPGKERELVATITSGGGTYYADSVKGRFTISRDNAKNTVYLLMNSLTPEDTAVYYCNKRYVVSRKYDYWGQGTQVTVSS	low polyreactivity
QVHLVESGGGLVQAGGSLRLSCAASGSIFSVNDMGWYRQAPGKERELVAAISSGGSTNYADSVKGRFTISRDNAKNTVSLQMNSLKPEDTAVYYCAADFYVVYWGTYSVGYDYWGQGTQVTVSS	low polyreactivity
QVQLVESGGGLVQAGGSLRLSCAASGIIFGSYTMGWYIQAPGKERELVATISFSGGTTNYADSVKGRFTISRDNAKNTVYLQMNSLKPEDTAVYYCAARPAPATGKLDYWGQGTQVTVSS	low polyreactivity
QVELVESGGGLVQAGGSLRLICAASGFTYTWNAMGWYRQAPGKERELVAGITRGGSTNYADSVKGRFTISRDNAKNTVYLQINSLKPEDTAVYYCNVSFYFHHAGYDFWGQGTQVTVSS	low polyreactivity
QVQLVESGGGLVQAGGSLRLSCAASGFTFNDYAMGWYRQAPGKERELVAAIDWSGGRTYYADSVKGRFTISRDNAKNTVYLQMNSLKPEDTAVYYCAAVLYSRLYLYRLDYWGQGTQVTVSS	low polyreactivity
